The source of these data is patent publication EP1444995A1.

The experiment concerns the target endogenous Translokin of mouse NIH-3T3 cells (mouse) (UniProt Q8CEE0). Kind of experiment: cell-based or functional assay.
Sequence of UniProt Q8CEE0 (Q8CEE0 whole entry): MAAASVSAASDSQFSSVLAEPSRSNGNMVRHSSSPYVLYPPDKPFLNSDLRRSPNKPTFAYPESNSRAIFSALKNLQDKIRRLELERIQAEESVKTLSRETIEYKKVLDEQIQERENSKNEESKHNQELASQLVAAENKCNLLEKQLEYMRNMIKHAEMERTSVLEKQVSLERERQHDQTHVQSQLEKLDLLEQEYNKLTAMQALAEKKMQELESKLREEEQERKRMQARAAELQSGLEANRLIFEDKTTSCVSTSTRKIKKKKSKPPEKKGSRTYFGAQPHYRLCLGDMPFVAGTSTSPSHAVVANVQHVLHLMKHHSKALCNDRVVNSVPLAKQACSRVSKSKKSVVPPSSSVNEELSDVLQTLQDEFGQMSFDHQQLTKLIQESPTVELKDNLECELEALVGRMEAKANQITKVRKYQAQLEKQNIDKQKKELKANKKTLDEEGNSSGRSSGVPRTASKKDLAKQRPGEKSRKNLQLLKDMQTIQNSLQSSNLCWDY

HA-tagged FGF-2 (18 kDa) (ligand): the FGF-2 nuclear accumulation in NIH-3T3 cells after Translokin siRNA came to 80%.
